# Laboratory results reported in patent publication US20180064758A1.
# How the values were obtained:
# [1] = biological target: Recombinant soluble CD19 ectodomain (made in 293T cells) (UniProt P15391); assay: flow cytometry of transduced primary human T-cells stained with anti-CD3 and, for CAR, with recombinant CD19. Other quadrants: 74.7 upper left, 1.86 lower left, 0.16 lower right. The non-transduced control has 0.27 in the upper right
# [2] = biological target: CD19 (partner in the 'Cellular affinity' column); assay: column 'Cellular affinity' of the drawn table; unit not given, the assay is not described in the filing and the format of the construct is not stated
# [3] = biological target: Recombinant soluble CD19 ectodomain (made in 293T cells) (UniProt P15391); assay: flow cytometry of transduced primary human T-cells stained with anti-CD3 and, for CAR, with recombinant CD19. Other quadrants: 67.5 upper left, 1.43 lower left, 0.24 lower right. The non-transduced control has 0.27 in the upper right
# Chain of UniProt P15391 (P15391 20-291 limits assumed): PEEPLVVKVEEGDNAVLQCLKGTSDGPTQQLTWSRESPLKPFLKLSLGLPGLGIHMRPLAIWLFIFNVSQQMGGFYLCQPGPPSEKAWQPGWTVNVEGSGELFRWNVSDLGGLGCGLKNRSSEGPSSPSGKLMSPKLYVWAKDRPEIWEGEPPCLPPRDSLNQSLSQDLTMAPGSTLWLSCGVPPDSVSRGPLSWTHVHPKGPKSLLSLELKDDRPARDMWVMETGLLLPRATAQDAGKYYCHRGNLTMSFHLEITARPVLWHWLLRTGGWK
substance,measurement,setting,value
"4G7 CAR in the Campana format (CD8 stalk spacer and transmembrane domain, 41BB endodomain, CD3-Zeta endodomain), on primary human T-cells",% of cells in the CD3+ CAR+ quadrant (upper right),[1],23.3%
"Fmc63 scFv-Fc (soluble recombinant scFv in scFv-Fc format, made in 293T cells) (Fc fusion)",Cellular affinity,[2],2e-10
"fmc63 CAR in the Campana format (CD8 stalk spacer and transmembrane domain, 41BB endodomain, CD3-Zeta endodomain), on primary human T-cells",% of cells in the CD3+ CAR+ quadrant (upper right),[3],30.8%
"4G7 scFv-Fc (soluble recombinant scFv in scFv-Fc format, made in 293T cells) (Fc fusion)",Cellular affinity,[2],1e-09
